T1: GST-WDR24 wild-type (full-length) (UniProt Q96S15 1-790)
T1 sequence (looked up): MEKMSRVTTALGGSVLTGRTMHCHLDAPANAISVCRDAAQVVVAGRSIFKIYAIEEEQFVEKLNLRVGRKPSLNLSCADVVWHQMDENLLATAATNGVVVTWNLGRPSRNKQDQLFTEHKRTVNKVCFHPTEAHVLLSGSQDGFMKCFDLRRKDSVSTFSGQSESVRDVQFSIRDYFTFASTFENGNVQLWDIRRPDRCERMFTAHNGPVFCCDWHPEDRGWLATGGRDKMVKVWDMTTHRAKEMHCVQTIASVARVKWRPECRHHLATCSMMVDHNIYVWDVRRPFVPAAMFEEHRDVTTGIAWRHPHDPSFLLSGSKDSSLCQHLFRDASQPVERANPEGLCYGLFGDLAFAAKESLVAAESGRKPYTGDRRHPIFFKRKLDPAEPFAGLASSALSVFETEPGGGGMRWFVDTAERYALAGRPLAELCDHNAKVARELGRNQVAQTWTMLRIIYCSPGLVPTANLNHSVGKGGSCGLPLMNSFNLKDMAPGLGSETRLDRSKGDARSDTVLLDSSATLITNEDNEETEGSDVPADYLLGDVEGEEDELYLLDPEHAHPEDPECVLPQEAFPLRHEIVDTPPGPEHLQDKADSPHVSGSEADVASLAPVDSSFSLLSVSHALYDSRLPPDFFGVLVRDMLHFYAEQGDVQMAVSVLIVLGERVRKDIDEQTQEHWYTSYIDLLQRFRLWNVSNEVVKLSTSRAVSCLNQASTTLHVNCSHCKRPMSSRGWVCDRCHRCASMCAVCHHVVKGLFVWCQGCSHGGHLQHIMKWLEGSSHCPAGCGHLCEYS

T2: Flag-WDR59 purified from HEK293T cells (UniProt Q6PJI9 1-974)
T2 sequence (looked up): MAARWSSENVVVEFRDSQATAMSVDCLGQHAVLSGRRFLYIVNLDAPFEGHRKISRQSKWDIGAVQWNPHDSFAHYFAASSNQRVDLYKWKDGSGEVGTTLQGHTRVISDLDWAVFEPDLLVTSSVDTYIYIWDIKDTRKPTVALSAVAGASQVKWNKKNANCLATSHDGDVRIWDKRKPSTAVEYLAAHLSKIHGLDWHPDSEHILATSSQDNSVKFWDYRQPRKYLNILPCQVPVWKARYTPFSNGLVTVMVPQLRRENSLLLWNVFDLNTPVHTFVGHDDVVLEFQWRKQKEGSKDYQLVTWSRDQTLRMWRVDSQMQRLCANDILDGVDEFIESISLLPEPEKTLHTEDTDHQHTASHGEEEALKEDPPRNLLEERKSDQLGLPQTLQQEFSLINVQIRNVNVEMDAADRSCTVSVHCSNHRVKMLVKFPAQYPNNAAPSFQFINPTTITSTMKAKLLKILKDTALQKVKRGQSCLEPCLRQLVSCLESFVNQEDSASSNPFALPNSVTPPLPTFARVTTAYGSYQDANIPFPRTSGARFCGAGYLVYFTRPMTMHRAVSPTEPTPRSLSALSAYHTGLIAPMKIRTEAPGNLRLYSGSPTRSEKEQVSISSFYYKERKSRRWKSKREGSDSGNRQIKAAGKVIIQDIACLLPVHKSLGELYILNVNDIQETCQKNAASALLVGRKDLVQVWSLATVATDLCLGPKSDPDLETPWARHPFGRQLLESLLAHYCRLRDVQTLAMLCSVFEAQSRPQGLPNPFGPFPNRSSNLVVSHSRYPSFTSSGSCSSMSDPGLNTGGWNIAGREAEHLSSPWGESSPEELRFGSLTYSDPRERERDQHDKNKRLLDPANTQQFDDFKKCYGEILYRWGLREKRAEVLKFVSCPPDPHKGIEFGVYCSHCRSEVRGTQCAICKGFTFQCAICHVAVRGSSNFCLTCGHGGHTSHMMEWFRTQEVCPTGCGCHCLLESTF

T3: Flag-WDR24 purified from HEK293T cells (UniProt Q96S15 1-790)
T3 sequence (looked up): T1 sequence (looked up)

T4: GST-WDR59 wild-type (UniProt Q6PJI9 1-974)
T4 sequence (looked up): T2 sequence (looked up)

B1: His-MBP-WDR59 Ring (924–974) (domain or fragment, UniProt Q6PJI9 924-974, looked up)
chain: {His-MBP}-CAICHVAVRGSSNFCLTCGHGGHTSHMMEWFRTQEVCPTGCGCHCLLESTF
modifications: cysteine pairing not given here; reading uncertain
B2: Flag-Sestrin2 (pRK5-FLAG-Sestrin2) (natural protein, UniProt P58004 1-480, looked up)
chain: MIVADSECRAELKDYLRFAPGGVGDSGPGEEQRESRARRGPRGPSAFIPVEEVLREGAESLEQHLGLEALMSSGRVDNLAVVMGLHPDYFTSFWRLHYLLLHTDGPLASSWRHYIAIMAAARHQCSYLVGSHMAEFLQTGGDPEWLLGLHRAPEKLRKLSEINKLLAHRPWLITKEHIQALLKTGEHTWSLAELIQALVLLTHCHSLSSFVFGCGILPEGDADGSPAPQAPTPPSEQSSPPSRDPLNNSGGFESARDVEALMERMQQLQESLLRDEGTSQEEMESRFELEKSESLLVTPSADILEPSPHPDMLCFVEDPTFGYEDFTRRGAQAPPTFRAQDYTWEDHGYSLIQRLYPEGGQLLDEKFQAAYSLTYNTIAMHSGVDTSVLRRAIWNYIHCVFGIRYDDYDYGEVNQLLERNLKVYIKTVACYPEKTTRRMYNLFWRHFRHSEKVHVNLLLLEARMQAALLYALRAITRYMT
B3: GST-Mios Ring (785–875) (domain or fragment, UniProt Q9NXC5 785-875, looked up)
chain: CALCLINMGTPVSSCPGGTKSDEKVDLSKDKKLAQFNNWFTWCHNCRHGGHAGHMLSWFRDHAECPVSACTCKCMQLDTTGNLVPAETVQP
B4: His-MBP-WDR24 Ring (743–790) (domain or fragment, UniProt Q96S15 743-790, looked up)
chain: {His-MBP}-CAVCHHVVKGLFVWCQGCSHGGHLQHIMKWLEGSSHCPAGCGHLCEYS
modifications: cysteine pairing not given here; reading uncertain
B5: His6-tag UBE2D3 (enzyme)
chain: not shown
B6: Flag-Mios purified from HEK293T cells (natural protein, UniProt Q9NXC5 1-875, looked up)
chain: MSGTKPDILWAPHHVDRFVVCDSELSLYHVESTVNSELKAGSLRLSEDSAATLLSINSDTPYMKCVAWYLNYDPECLLAVGQANGRVVLTSLGQDHNSKFKDLIGKEFVPKHARQCNTLAWNPLDSNWLAAGLDKHRADFSVLIWDICSKYTPDIVPMEKVKLSAGETETTLLVTKPLYELGQNDACLSLCWLPRDQKLLLAGMHRNLAIFDLRNTSQKMFVNTKAVQGVTVDPYFHDRVASFYEGQVAIWDLRKFEKPVLTLTEQPKPLTKVAWCPTRTGLLATLTRDSNIIRLYDMQHTPTPIGDETEPTIIERSVQPCDNYIASFAWHPTSQNRMIVVTPNRTMSDFTVFERISLAWSPITSLMWACGRHLYECTEEENDNSLEKDIATKMRLRALSRYGLDTEQVWRNHILAGNEDPQLKSLWYTLHFMKQYTEDMDQKSPGNKGSLVYAGIKSIVKSSLGMVESSRHNWSGLDKQSDIQNLNEERILALQLCGWIKKGTDVDVGPFLNSLVQEGEWERAAAVALFNLDIRRAIQILNEGASSEKGDLNLNVVAMALSGYTDEKNSLWREMCSTLRLQLNNPYLCVMFAFLTSETGSYDGVLYENKVAVRDRVAFACKFLSDTQLNRYIEKLTNEMKEAGNLEGILLTGLTKDGVDLMESYVDRTGDVQTASYCMLQGSPLDVLKDERVQYWIENYRNLLDAWRFWHKRAEFDIHRSKLDPSSKPLAQVFVSCNFCGKSISYSCSAVPHQGRGFSQYGVSGSPTKSKVTSCPGCRKPLPRCALCLINMGTPVSSCPGGTKSDEKVDLSKDKKLAQFNNWFTWCHNCRHGGHAGHMLSWFRDHAECPVSACTCKCMQLDTTGNLVPAETVQP
B7: GST-fusion protein of full-length wild-type Mios (natural protein, UniProt Q9NXC5 1-875, looked up)
chain: B6 chain

Holding throughout (experiment): pull-down
The assay “GST-Mios Ring (785–875)” deals with B3.
Assay [1] deals with T1, GST-WDR24 wild-type (full-length).
The target of assay [2] is T2, Flag-WDR59 purified from HEK293T cells.
The target of assay [3] is T3, Flag-WDR24 purified from HEK293T cells.
Assay [4] shares this target. This is another data set of the same source.
The target in the next assay is T4, GST-WDR59 wild-type.

Where two headings read alike, the source gives them in different places. Where no end group is shown, it is not given here. MBP = not defined here

Regarding B1, the binding result in the assay with GST-Mios Ring (785–875) is “binds”.
For B2, the binding result in assay [1] was “binds”.
With B3, the binding result in assay [2] and in assay [3] was “binds” throughout.
For the molecule B4, the binding result with GST-Mios Ring (785–875) is given as “binds”.
On to B5, for which the binding result in assay [1] and in assay [4] was “binds” each time.
Consider B6, for which the binding result with GST-WDR59 wild-type is given as “binds”.
Take B7: the binding result in assay [2] is “binds”.

These data come from article PMC11027793 (Molecular cell, 2022).
